Measured values published in patent publication WO2004046187A2 (dated 2004).

How the values were obtained:
[1] = molecular target: T1, Recombinant oncogenic HRAS (G12V; residues 1 - 166) loaded with GppNp (human, UniProt P01112 1-166); experiment: SPR, BIAcore 2000; HRASG12V-GppNp immobilised on CM5 chip (about 1500 RU), purified scFv injected
T1 construct: range 1-166; this form was used as antigen throughout the in vitro assays; also called HRASG12V-GppNp; RASG12V-GppNp

[2] = molecular target: T2, non-relevant antigen (β-galactosidase) bait in yeast (UniProt P00722 2-1024 = β-galactosidase); experiment: yeast two-hybrid (His-independent growth, β-gal activation)
T2 construct: Used as non-relevant bait in the yeast two-hybrid test
T2 sequence (P00722 2-1024 limits assumed): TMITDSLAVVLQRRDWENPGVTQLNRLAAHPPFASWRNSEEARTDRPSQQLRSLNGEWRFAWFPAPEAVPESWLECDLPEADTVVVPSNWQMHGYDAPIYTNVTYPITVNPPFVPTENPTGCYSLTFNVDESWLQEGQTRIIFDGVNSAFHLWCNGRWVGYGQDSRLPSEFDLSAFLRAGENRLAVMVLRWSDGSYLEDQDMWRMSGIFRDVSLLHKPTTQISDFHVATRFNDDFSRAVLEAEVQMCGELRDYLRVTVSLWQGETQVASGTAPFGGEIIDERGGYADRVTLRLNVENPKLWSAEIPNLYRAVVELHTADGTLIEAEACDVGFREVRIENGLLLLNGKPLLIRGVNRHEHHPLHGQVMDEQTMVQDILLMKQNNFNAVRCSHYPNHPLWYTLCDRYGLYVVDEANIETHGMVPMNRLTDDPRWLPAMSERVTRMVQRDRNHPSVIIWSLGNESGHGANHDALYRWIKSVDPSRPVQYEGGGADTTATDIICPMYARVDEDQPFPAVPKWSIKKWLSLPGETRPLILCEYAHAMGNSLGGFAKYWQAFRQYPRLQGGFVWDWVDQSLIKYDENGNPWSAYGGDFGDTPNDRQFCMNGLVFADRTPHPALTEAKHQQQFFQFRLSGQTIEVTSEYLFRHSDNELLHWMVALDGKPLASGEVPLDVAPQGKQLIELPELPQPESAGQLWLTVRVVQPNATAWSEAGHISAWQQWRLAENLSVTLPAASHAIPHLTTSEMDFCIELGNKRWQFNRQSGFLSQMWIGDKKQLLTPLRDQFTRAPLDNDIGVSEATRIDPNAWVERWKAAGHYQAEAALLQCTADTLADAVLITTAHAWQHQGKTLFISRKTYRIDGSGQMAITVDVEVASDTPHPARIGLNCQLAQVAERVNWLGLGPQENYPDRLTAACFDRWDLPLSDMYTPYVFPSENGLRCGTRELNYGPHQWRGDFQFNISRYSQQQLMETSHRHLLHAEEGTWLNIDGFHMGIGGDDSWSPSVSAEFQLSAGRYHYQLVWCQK

[3] = molecular target: T3, LexA DBD (made from the empty pBTM116 vector) (UniProt P0A7C2 1-202); experiment: as above
T3 construct: domain: LexA DBD; Control bait in yeast
T3 sequence: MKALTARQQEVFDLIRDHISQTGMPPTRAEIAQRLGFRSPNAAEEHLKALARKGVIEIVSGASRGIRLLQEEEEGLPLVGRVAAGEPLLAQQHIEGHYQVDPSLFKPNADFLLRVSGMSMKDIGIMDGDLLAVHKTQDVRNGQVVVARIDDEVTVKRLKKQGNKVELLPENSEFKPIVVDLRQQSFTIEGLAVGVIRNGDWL

B1: anti-RAS scFvI21, purified from bacterial periplasm (pHEN2) (scFv)
scFv: EVQLLESGGGLVQPGGSLRLSCAASGFTFSSYAMSWVRQAPGKGLEWVSTISYGGSNTNYADSVKARFTISRDNSKNTLYLQMNSLRAEDTAVYYCAKGNNAFDYWGQGTLVTVSSGGGGSGGGGSGGGGSTDIQMTQSPSSLSASVGDRVTITCRASQSISSYLNWYQQKPGKAPKLLIYNASALQSGVPSRFSGSGSGTDFTLTISSLQPEDFATYYCQQYTSTPRTFGQGTKVEIKR
notes: also called 121 (as the text prints it); ICAb 121; not shown: C-terminal His6-tag and myc-tag from pHEN2
[1]
  Kd: 2160 nM

B2: scFvI21-VP16 activation domain fusion (scFv)
scFv: EVQLLESGGGLVQPGGSLRLSCAASGFTFSSYAMSWVRQAPGKGLEWVSTISYGGSNTNYADSVKARFTISRDNSKNTLYLQMNSLRAEDTAVYYCAKGNNAFDYWGQGTLVTVSSGGGGSGGGGSGGGGSTDIQMTQSPSSLSASVGDRVTITCRASQSISSYLNWYQQKPGKAPKLLIYNASALQSGVPSRFSGSGSGTDFTLTISSLQPEDFATYYCQQYTSTPRTFGQGTKVEIKR
notes: In the mammalian vector the scFv stands on the N-terminal side of VP16; the same id is used for the yeast pVP16 prey; also called 121; ICAb 121
[2]
  binding result: no binding
[3]
  binding result: no binding
